Test results published in patent publication US7067474B1, “Agents for treating human illnesses based on β-catenin, and the production and use thereof” (Max-Delbruck-Centrum fur Molekulare Medizin, priority 1998, dated 2006).
Where a name gives a salt, the structure may show the parent alone. Each block holds one molecule with its values, some of them ahead of it. Where no end group is shown, it is not given here.

Experiments:
Assay type in all cases: binding
[1] = target: T1, LEF-1/β-catenin interaction (Homo sapiens, UniProt P35222); test: ELISA: inhibition of complex formation of LEF-1 and β-catenin; settings: for inhibition of the interaction between LEF-1 and β-catenin (complex formation): synthetic peptides, 100 μM to 0.3 μM
T1 construct: made in house; host or cells: bacteria
T1 sequence (P35222 1-781): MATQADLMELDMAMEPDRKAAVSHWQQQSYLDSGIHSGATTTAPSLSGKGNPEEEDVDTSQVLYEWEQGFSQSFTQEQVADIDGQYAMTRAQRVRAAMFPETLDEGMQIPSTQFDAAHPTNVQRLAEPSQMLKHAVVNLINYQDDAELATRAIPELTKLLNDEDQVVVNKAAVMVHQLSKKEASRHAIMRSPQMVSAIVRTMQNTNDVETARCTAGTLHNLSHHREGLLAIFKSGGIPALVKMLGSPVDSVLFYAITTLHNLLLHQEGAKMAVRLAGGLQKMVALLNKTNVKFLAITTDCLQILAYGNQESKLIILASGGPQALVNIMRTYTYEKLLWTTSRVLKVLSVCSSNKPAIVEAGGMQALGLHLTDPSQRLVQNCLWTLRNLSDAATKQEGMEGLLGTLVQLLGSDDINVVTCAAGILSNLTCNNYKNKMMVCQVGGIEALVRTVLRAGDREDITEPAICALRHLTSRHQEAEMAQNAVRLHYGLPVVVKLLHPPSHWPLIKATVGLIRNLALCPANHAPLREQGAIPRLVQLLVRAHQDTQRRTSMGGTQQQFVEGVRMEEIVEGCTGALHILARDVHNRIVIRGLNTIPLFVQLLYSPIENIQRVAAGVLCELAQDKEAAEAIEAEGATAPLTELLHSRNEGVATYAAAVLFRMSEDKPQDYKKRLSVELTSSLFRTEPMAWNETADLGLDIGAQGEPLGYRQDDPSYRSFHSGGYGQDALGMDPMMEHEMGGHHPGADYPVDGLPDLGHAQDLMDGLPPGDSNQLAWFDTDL
Source text: Both proteins were produced in bacteria recombinantly with N-terminal histidine sequences, purified by means of nickel chromatography for quantifying the inhibition of the LEF-1/β-catenin interaction by synthetic peptides and (Behrens et al. 1996). The peptides were produced by the company Biosyntan with the aid of a PSSM-8 automaton (Shimadzu, Japan) applying the Fmoc/But strategy (E. Atherton and R. C. Sheppard. 1989 IRL Press. Oxford: “Solid phase peptide synthesis—a practical approach”). Approx. 50 ng of LFF-1 were absorbed in the wells of ELISA plates for 90 minutes at room temperature. Subsequently, the wells were covered with 5% dry milk powder in PBS for 16 hours at 4° C. All further steps were carried out at room temperature in PBS with 50 mM Tris HCl (pH 7.5). After washing the wells with PBS the peptide dilutions were added. The incubation with 50–100 ng of β-catenin was carried out for 10 minutes in the presence of […] BSA. The complex formation of LEF-1 and β-catenin was detected by the antibody PA2 against the carboxy terminal area of β-catenin (Huelsken et al. 1994). PA2 was added in a standard dilution of 1:5000 in 3% of dry milk powder in PBS for 10 minutes. After washing the wells with PBS a quantification was carried out by detection antibodies conjugated by peroxidase (1: 2500 in 3% of dry milk powder in PBS, Dianova) and the conversion of o-phenylenediamine was determined by photometric measurement at […]. The peptides were used in concentrations of 100 μM to 0.3 μM. To check the specificity of the inhibition of the LEF-1/β-catenin interaction β-catenin was absorbed in the wells and detected by means of the same antibodies in the presence and absence of the peptides (FIGS. 2 and 3).
For a mutation analysis of the peptides the indicated amino acids were substituted by alanine during the synthesis. The inhibition of the complex formation of β-catenin and LEF-1 was quantified as has been already described (FIG. 2).

LEF-1 = target: T2, LEF-1 (Mus musculus, UniProt P27782); test: yeast 2-hybrid: interaction of β-catenin mutants with LEF-1
T2 construct: the cDNA of LEF-1 for the amino acids 1–99; expressed in transfected cells; host or cells: yeast (two-hybrid, Matchmaker, Clontech)
Description: (§1) The mutagenesis of β-catenin in the armadillo repeats 3–8 was carried out by means of the “mutagenesis kit” of the company Clontech according to the producer's record and the mutants were checked by sequencing (FIG. 5). In all mutants the original amino acid was substituted by alanine. For analyzing the interactions the cDNA of human β-catenin (armadillo repeat 3 up to the C-terminal end of the protein) coding for the amino acids Leu218–Leu7 μl or its mutants was cloned into the fusion vector for the activation domain of Gal-4 (pGAD424, Clontech). The cDNA for the binding domains of the interaction partners was cloned into the Lex-A fusion vector BTM 116. To this end, the cDNA of LEF-1 for the amino acids 1–99, conductin for the amino acids Ala342–ARG465; of human APC for the amino acids His1012–Glu1215 (APC 15 amino acid repeats) and for the amino acids Ser1259Asp 1400 (APC 20 amino acid repeats) and E-cadherin for the amino acids Gin773–Asp884 (cytoplasmatic domain) were amplified with the respective primers PCR. The interaction of the Lex-A hybrids with β-catenin and its mutants was quantified by means of the β-galactosidase reporter activity in the yeast 2-hybrid system (report: “Matchmaker”. Clontech) (Tab. 2 and FIG. 6).

[2] = target: T3, APC (20 amino acid repeats) (Homo sapiens, UniProt P25054); test: yeast 2-hybrid: interaction of β-catenin mutants with APC 20 amino acid repeats; settings: yeast 2-hybrid, alanine mutants
T3 construct: for the amino acids Ser1259Asp 1400 (APC 20 amino acid repeats); expressed in transfected cells; host or cells: yeast (two-hybrid, Matchmaker, Clontech)
T3 sequence (P25054 1253-1394 limits assumed): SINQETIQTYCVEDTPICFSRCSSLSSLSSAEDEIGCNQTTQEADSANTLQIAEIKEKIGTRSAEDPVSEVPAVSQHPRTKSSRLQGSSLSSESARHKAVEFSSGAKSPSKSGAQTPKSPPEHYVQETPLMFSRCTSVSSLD
Description: as §1

[3] = target: T4, APC (15 amino acid repeats) (Homo sapiens, UniProt P25054); test: yeast 2-hybrid: interaction of β-catenin mutants with APC 15 amino acid repeats; settings: for Interaction With APC-15, share of wild type β-catenin interaction: yeast 2-hybrid, alanine mutants
T4 construct: of human APC for the amino acids His1012–Glu1215 (APC 15 amino acid repeats); expressed in transfected cells; host or cells: yeast (two-hybrid, Matchmaker, Clontech)
T4 sequence (P25054 1006-1209 limits assumed): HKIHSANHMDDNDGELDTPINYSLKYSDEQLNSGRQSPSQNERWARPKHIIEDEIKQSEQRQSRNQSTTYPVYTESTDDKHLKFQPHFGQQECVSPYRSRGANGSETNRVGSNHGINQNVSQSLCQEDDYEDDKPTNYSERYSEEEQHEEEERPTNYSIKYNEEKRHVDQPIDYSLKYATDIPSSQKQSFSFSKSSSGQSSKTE
Description: as §1

conductin = target: T5, conductin (Mus musculus, UniProt O88566); test: yeast 2-hybrid: interaction of β-catenin mutants with conductin; settings: yeast 2-hybrid, alanine mutants
T5 construct: conductin for the amino acids Ala342–ARG465; expressed in transfected cells; host or cells: yeast (two-hybrid, Matchmaker, Clontech)
Description: as §1

E-cadherin = target: T6, E-cadherin (Mus musculus, UniProt P09803); test: yeast 2-hybrid: interaction of β-catenin mutants with E-cadherin; settings: alanine mutants
T6 construct: E-cadherin for the amino acids Gin773–Asp884 (cytoplasmatic domain); expressed in transfected cells; host or cells: yeast (two-hybrid, Matchmaker, Clontech)
Description: as §1

T2 sequence (P27782 1-99): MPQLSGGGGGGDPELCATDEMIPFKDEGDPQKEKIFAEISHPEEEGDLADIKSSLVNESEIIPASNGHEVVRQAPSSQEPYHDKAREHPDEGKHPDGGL
T5 sequence (O88566 343-465 limits assumed): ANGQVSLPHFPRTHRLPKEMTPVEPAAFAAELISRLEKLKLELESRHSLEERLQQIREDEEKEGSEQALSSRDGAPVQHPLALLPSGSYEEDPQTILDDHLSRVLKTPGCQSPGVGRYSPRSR
T6 sequence (P09803 773-884): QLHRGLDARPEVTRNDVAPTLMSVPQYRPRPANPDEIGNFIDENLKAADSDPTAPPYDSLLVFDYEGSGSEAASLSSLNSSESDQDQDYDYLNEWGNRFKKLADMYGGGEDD

Molecule: Ile35–Val56: peptide of LEF-1 with the amino acids Ile35–Val56 (IFAEISHPEEEGDLADIKSSLV)
- inhibition of the interaction between LEF-1 and β-catenin (complex formation) [1]: does not inhibit complex formation

Molecule: Phe20: synthetic hTCF-4 N-terminal peptide with Phe20 substituted (GGDDLGANDELISAKDEGEQEEK)
- inhibition of the interaction between LEF-1 and β-catenin (complex formation) [1]: has the same effect

Molecule: Asp22: synthetic hTCF-4 N-terminal peptide with Asp22 substituted by alanine (GGDDLGANDELISFKAEGEQEEK)
- inhibition of the interaction between LEF-1 and β-catenin (complex formation) [1]: stopping the inhibition

Molecule: ELCATDEMIPFKDE [14–27]
- inhibition of the interaction between LEF-1 and β-catenin (complex formation) [1]: inhibit specifically

Molecule: Asp10: synthetic hTCF-4 N-terminal peptide with Asp10 substituted by alanine (GGDALGANDELISFKDEGEQEEK)
- inhibition of the interaction between LEF-1 and β-catenin (complex formation) [1]: stopping the inhibition

B1: Lys 435: human β-catenin mutant, Lys 435 substituted by alanine (arm 8) (protein)
chain: LHNLSHHREGLLAIFKSGGIPALVKMLGSPVDSVLFYAITTLHNLLLHQEGAKMAVRLAGGLQKMVALLNKTNVKFLAITTDCLQILAYGNQESKLIILASGGPQALVNIMRTYTYEKLLWTTSRVLKVLSVCSSNKPAIVEAGGMQALGLHLTDPSQRLVQNCLWTLRNLSDAATKQEGMEGLLGTLVQLLGSDDINVVTCAAGILSNLTCNNYKNAMMVCQVGGIEALVRTVLRAGDREDITEPAICALRHLTSRHQEAEMAQNAVRLHYGLPVVVKLLHPPSHWPLIKATVGLIRNLALCPANHAPLREQGAIPRLVQLLVRAHQDTQRRTSMGGTQQQFVEGVRMEEIVEGCTGALHILARDVHNRIVIRGLNTIPLFVQLLYSPIENIQRVAAGVLCELAQDKEAAEAIEAEGATAPLTELLHSRNEGVATYAAAVLFRMSEDKPQDYKKRLSVELTSSLFRTEPMAWNETADLGLDIGAQGEPLGYRQDDPSYRSFHSGGYGQDALGMDPMMEHEMGGHHPGADYPVDGLPDLGHAQDLMDGLPPGDSNQLAWFDTDL
modifications: left off: large carriers; small tags and cut ends
- Interaction With LEF-1, share of wild type β-catenin interaction (LEF-1; yeast 2-hybrid, alanine mutants): — (Interactions marked by — correspond to 60–100% of the wild type interaction)
- interaction with LEF-1/TCF-4 (LEF-1; β-catenin mutation, in words): blocking the interaction
- Interaction With APC-20, share of wild type β-catenin interaction [2]: — (Interactions marked by — correspond to 60–100% of the wild type interaction)
- Interaction With APC-15, share of wild type β-catenin interaction [3]: 30%
- Interaction With Conductin, share of wild type β-catenin interaction (conductin): 42%
- Interaction With E-Cadherin, share of wild type β-catenin interaction (E-cadherin): — (Interactions marked by — correspond to 60–100% of the wild type interaction)

More lines, main results first:

- IC50 ([1]; recombinant purified proteins, 15–250 μM, FIG. 9, read-out: IC50, reduction of the complex formation of LEF-1 and β-catenin): 25 µM
Molecule: Cn1nnnc1SCC1=C(C(=O)O)N2C(=O)C(NC(=O)[C@@H](O)c3ccccc3)C2SC1 (stereo partly shown) [cefamandole, CEFAMANDOLESODIUM SALT, reference compound]

- inhibition of the interaction between LEF-1 and β-catenin (complex formation) [1]: has the same effect
Molecule: Lys21: synthetic hTCF-4 N-terminal peptide with Lys21 substituted (GGDDLGANDELISFADEGEQEEK)

- inhibition of the interaction between LEF-1 and β-catenin (complex formation) [1]: inhibit specifically
Molecule: GDPELCATDEMIPFKDEGDPQKEK [11–34]

- inhibition of the interaction between LEF-1 and β-catenin (complex formation) [1]: stopping the inhibition
Molecule: Asp15: synthetic hTCF-4 N-terminal peptide with Asp15 substituted by alanine (GGDDLGANAELISFKDEGEQEEK)

- Interaction With APC-15, share of wild type β-catenin interaction [3]: 12%
- interaction with APC 15aa ([3]; β-catenin mutation, in words): no interaction with APC 15aa
- Interaction With Conductin, share of wild type β-catenin interaction (conductin): 45%
B2: Arg 386: human β-catenin mutant, Arg 386 substituted by alanine (arm 6) (protein)
chain: LHNLSHHREGLLAIFKSGGIPALVKMLGSPVDSVLFYAITTLHNLLLHQEGAKMAVRLAGGLQKMVALLNKTNVKFLAITTDCLQILAYGNQESKLIILASGGPQALVNIMRTYTYEKLLWTTSRVLKVLSVCSSNKPAIVEAGGMQALGLHLTDPSQRLVQNCLWTLANLSDAATKQEGMEGLLGTLVQLLGSDDINVVTCAAGILSNLTCNNYKNKMMVCQVGGIEALVRTVLRAGDREDITEPAICALRHLTSRHQEAEMAQNAVRLHYGLPVVVKLLHPPSHWPLIKATVGLIRNLALCPANHAPLREQGAIPRLVQLLVRAHQDTQRRTSMGGTQQQFVEGVRMEEIVEGCTGALHILARDVHNRIVIRGLNTIPLFVQLLYSPIENIQRVAAGVLCELAQDKEAAEAIEAEGATAPLTELLHSRNEGVATYAAAVLFRMSEDKPQDYKKRLSVELTSSLFRTEPMAWNETADLGLDIGAQGEPLGYRQDDPSYRSFHSGGYGQDALGMDPMMEHEMGGHHPGADYPVDGLPDLGHAQDLMDGLPPGDSNQLAWFDTDL
modifications: left off: large carriers; small tags and cut ends
- Interaction With E-Cadherin, share of wild type β-catenin interaction (E-cadherin): — (Interactions marked by — correspond to 60–100% of the wild type interaction)
